The target in assay [1] is T1, HA-PHB2 (HA-tagged PHB2 construct) (human, UniProt Q99623 1-299, limits assumed).
T1 construct: Expressed by transfection in COS-7 or HEK293T cells; also called PHB2/REA construct; HA-tagged PHB2/REA (WT); not shown: HA tag
Nature of the assay: COS-7 co-transfection with the PHB2/REA construct, IP with anti-HA antibody, immunoblot. (In general: In western blotting, separated proteins are transferred to a membrane and probed.)

Assay [2] has as its target T1, HA-PHB2 (HA-tagged PHB2 construct). Put plainly: COS-7 co-transfection with the PHB2/REA construct, IP with anti-FLAG antibody, immunoblot.
Assay [3] shares this target. Nature of the assay: co-immunoprecipitation from COS-7 cells, IP anti-FLAG, blot anti-HA (second experiment).
Assay [4] has the same target. Nature of the assay: co-immunoprecipitation from COS-7 cells, IP anti-FLAG, blot anti-HA.
Assay [5] shares this target. Put plainly: co-immunoprecipitation from COS-7 cells, IP anti-HA, blot anti-FLAG.
Assay [6] has the same target. Put plainly: COS-7 co-transfection with the PHB2/REA construct, IP and immunoblot.
Assay [7] has the same target. Put plainly: co-immunoprecipitation from COS-7 cells, IP anti-FLAG and IP anti-HA.
The target is the same in assay [8]. Nature of the assay: co-IP from COS-7 cells co-transfected with a Flag-ERAP1 construct and HA-PHB2; IP anti-Flag, IB anti-HA.
For assay [9], the target named is T2, 6×His-tagged recombinant PHB2/REA protein (human, UniProt Q99623 77-244).
T2 construct: Expressed in Escherichia coli BL21 star (DE3); also called His-PHB2/REA; 6×His-PHB2/REA; not shown: hexahistidine tag, thioredoxin (TrxA) and TEV protease cut site at the amino terminal (pTAT6 vector)
T2 sequence (Q99623 77-244): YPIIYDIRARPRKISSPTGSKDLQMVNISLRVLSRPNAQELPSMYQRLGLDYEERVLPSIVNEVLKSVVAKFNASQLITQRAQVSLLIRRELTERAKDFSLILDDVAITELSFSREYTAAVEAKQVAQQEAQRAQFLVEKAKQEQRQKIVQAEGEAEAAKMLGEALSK
Put plainly: fluorescence correlation spectroscopy, 10 nM FITC-tagged ERAP1-scramble peptide with rising 6xHis-PHB2/REA.

Assay [10] has as its target T3, inherent ERAP1 (Estrogen Receptor Activity-regulated Protein 1) (human, UniProt Q5TH69 1-2177).
T3 construct: Endogenous protein immunoprecipitated from cell lysates; also called ERAP1 polypeptide; BIG3
Put plainly: co-IP from cytoplasm and nuclear fractions of KPL-3C cells, 24 h, 10 nM E2 and/or 10 µM HA-tagged ERAP1-peptide; blot anti-HA.

The target in assay [11] is T2, 6×His-tagged recombinant PHB2/REA …. Nature of the assay: Biacore 3000, 6×His-tagged recombinant PHB2/REA immobilized on a CM5 chip, peptide injected; Biacore; His-PHB2/REA on the chip, HA-tagged peptide injected.
The target in assay [12] is inherent PHB2/REA (prohibitin 2 / Repressor of Estrogen Activity) (human, UniProt Q99623 2-299, limits assumed). Put plainly: cell-based or functional assay.
Chain of inherent PHB2/REA (prohibitin 2 / Repressor of Estrogen Activity) (Q99623 2-299 limits assumed): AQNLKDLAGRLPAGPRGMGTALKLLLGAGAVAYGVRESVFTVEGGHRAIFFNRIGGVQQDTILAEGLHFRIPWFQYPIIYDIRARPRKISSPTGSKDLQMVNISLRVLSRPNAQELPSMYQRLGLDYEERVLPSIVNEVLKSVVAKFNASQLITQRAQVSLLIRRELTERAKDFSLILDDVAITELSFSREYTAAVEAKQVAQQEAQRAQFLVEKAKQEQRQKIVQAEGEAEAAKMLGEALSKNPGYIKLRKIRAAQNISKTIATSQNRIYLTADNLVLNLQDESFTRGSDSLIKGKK
Another assay addresses T4, NcoR (human, UniProt O75376 1-2440, limits assumed).
T4 construct: also called transcription coupling suppression factor NcoR
Put plainly: co-IP from the nuclear fraction of KPL-3C cells, 24 h, 10 nM E2 and/or 10 µM Peptide.

The next assay deals with Her2 (human, UniProt P04626 23-1255). Put plainly: anti-ERα co-IP from the cytoplasm fraction of BT-474 cells, 24 h, 10 nM E2 and/or 10 µM Peptide.
The next assay has as its target EGFR (human, UniProt P00533 25-1210). The assay is described as above.
The target in assay [13] is T2, 6×His-tagged recombinant PHB2/REA …. Nature of the assay: fluorescence correlation spectroscopy, 10 nM FITC-tagged ERAP1-peptide with rising 6xHis-PHB2/REA; same constant as the 14.4 µM of the text, in mass units.
The target is the same in assay [14]. Nature of the assay: fluorescence correlation spectroscopy, 10 nM FITC-tagged peptide with His-PHB2/REA at various concentrations; fluorescence correlation spectroscopy; 10 nM FITC-tagged peptide in solution.
Assay [15] shares this target. Put plainly: Ni-resin pull-down of 10 µg His-PHB2 mixed with lysate of Flag-tagged ERAP1 expressing cells and HA-peptide; blot for Peptide.

Positions count from the first letter of the chain named. Names and notes keep the numbering of the source. Where no end group is shown, it is not given here.

Data on 12 molecules can be found in patent publication US20140162952A1 (ONCOTHERAPY SCIENCE, published 2014).

T1 sequence (Q99623 whole entry): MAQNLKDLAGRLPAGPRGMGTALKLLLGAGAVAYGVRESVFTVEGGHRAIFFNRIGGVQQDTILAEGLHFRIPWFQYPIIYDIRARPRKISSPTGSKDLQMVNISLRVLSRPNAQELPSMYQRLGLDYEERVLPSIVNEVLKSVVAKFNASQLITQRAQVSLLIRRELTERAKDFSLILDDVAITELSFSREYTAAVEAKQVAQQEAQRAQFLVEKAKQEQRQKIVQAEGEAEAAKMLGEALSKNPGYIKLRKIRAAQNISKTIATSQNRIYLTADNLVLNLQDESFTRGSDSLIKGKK
T4 sequence (O75376 whole entry): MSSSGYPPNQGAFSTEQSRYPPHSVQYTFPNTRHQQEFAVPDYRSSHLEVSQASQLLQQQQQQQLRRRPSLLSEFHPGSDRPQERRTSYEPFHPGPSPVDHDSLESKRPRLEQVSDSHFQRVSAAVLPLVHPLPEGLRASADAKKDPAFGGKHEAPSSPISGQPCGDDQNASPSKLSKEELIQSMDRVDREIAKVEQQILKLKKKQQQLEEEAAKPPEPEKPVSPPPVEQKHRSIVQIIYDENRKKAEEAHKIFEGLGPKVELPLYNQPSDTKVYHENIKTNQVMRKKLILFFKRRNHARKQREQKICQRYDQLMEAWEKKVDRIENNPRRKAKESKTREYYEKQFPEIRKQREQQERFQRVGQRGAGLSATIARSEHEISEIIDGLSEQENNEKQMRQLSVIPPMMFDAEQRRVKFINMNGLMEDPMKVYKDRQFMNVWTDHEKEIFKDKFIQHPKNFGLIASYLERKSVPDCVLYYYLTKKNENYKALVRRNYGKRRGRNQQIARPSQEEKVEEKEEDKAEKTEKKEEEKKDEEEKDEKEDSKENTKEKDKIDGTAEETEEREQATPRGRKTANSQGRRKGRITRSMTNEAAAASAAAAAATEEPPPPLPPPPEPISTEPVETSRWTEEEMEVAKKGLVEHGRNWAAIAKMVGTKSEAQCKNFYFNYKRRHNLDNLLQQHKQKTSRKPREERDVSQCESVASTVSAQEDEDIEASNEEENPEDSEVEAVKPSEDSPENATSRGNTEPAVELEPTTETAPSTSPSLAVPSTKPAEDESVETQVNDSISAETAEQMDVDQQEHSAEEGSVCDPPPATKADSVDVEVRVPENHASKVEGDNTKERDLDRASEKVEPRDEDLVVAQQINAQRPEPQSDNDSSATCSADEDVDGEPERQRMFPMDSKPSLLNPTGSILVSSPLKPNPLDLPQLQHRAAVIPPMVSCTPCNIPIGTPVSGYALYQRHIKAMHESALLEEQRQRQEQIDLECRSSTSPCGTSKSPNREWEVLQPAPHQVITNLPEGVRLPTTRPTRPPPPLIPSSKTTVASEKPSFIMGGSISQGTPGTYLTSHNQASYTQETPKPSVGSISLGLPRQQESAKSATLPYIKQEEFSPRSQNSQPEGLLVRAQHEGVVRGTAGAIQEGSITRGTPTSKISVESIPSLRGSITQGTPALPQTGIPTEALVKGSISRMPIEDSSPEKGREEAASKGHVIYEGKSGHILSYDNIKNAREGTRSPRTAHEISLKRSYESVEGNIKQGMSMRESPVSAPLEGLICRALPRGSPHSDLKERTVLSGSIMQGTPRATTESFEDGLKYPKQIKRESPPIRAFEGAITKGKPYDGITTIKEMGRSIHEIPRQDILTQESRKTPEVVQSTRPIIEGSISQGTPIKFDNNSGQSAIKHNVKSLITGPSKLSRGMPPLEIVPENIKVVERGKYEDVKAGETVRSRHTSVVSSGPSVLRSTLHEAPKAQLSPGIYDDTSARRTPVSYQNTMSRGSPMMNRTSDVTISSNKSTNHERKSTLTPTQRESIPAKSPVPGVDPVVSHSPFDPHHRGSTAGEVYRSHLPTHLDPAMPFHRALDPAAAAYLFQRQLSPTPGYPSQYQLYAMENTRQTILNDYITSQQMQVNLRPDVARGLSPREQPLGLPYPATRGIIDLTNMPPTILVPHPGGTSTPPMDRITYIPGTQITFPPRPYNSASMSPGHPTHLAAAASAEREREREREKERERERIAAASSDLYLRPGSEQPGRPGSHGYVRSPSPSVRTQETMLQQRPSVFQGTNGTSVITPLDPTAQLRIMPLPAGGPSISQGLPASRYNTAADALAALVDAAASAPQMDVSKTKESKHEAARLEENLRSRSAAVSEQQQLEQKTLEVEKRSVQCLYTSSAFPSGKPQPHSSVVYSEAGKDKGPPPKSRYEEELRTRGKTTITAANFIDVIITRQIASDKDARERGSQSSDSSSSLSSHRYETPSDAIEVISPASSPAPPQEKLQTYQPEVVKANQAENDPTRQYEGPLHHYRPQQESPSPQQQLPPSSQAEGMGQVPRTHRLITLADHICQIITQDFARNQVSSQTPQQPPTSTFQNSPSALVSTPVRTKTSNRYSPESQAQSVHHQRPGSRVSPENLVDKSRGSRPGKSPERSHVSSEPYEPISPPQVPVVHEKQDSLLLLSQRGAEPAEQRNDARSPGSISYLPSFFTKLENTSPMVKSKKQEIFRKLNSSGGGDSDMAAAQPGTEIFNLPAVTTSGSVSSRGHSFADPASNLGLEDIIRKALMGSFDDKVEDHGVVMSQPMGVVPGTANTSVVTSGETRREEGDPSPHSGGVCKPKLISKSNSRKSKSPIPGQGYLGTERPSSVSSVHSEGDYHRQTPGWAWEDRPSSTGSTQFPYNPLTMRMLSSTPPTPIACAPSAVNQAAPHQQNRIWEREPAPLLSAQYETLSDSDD

B1: ERAP1 alanine mutant of D169 (D169A) (other)
chain: MEEILRKLQKEASGSKYKAIKESCTWALETLGGLDTIVKIPPHVLREKCLLPLQLALESKNVKLAQHALAGMQKLLSEERFVSMETDSDEKQLLNQILNAVKVTPSLNEDLQVEVMKVLLCITYTPTFDLNGSAVLKIAEVCIETYISSCHQRSINTAVRATLSQMLSALTLQLRQRQENTIIENPDVPQDFGNQGSTVESLCDDVVSVLTVLCEKLQAAINDSQQLQLLYLECILSVLSSSSSSMHLHRRFTDLIWKNLCPALIVILGNPIHDKTITSAHTSSTSTSLESDSASPGVSDHGRGSGCSCTAPALSGPVARTIYYIAAELVRLVGSVDSMKPVLQSLYHRVLLYPPPQHRVEAIKIMKEILGSPQRLCDLAGPSSTESESRKRSISKRKSHLDLLKLIMDGMTEACIKGGIEACYAAVSCVCTLL
notes: also called D169 mutant construct; not shown: Flag tag
As to B1, the “coprecipitation band, ratio when that with ERAP1 (1-434 aa) is designated as 100” value (from here on “coprecipitation band, ratio when that”) in assay [1] amounted to 0%; in [2], 22%. Moreover, the “ratio of the coprecipitated band (ERAP1 1-434 = 100)” value (“ratio of the coprecipitated band” below) in [3] came out at 33.

B2: ERAP1 alanine mutant of Q165 (Q165A) (other)
chain: B1 chain with Q165A, A169D
notes: also called Q165 mutant construct; not shown: Flag tag
As to B2, the “coprecipitation band, ratio when that” value in assay [1] was determined as 24%; in [2], 60%. In assay [3], the “ratio of the coprecipitated band” value amounted to 63.

B3: Q173A (other)
single chain: B1 chain with A169D, Q173A
notes: Construct named in the text, but absent from the list MOLECULES; its band ratios stand only on the sheet; also called alanine mutant of Q173 (Q173A)
Regarding B3, the “ratio of the coprecipitated band” value in assay [4] was 79; in assay [5] it was 52.

B4: ERAP1 alanine mutant of Q165 and D169 (Q165A, D169A) (other)
chain: B1 chain with Q165A
notes: not shown: Flag tag
For the molecule B4, in assay [6], the “coprecipitation band, ratio when that” value was 12%.

B5: ERAP1 mutant (alanine mutant of Q165, D169 and Q173) (other)
chain: B1 chain with Q165A, Q173A
notes: not shown: Flag tag
As for B5, the “coprecipitation band, ratio when that” value in assay [6] was 2%. The “ratio of the coprecipitated band” value in [4] came out at 1. For the same molecule, in assay [7], the binding result is listed as “no binding”.

B6: ERAP1 1468-2177 (Flag-ERAP1) (other, not shown: small tags and cut ends)
chain: CPRQHQPPTLDLLFELLRDVTKTPGPGFGIYAVVHLLLPVMSVWLRRSHKDHSYWDMASANFKHAIGLSCELVVEHIQSFLHSDIRYESMINTMLKDLFELLVACVAKPTETISRVGCSCIRYVLVTAGPVFTEEMWRLACCALQDAFSATLKPVKDLLGCFHSGTESFSGEGCQVRVAAPSSSPSAEAEYWRIRAMAQQVFMLDTQCSPKTPNNFDHAQSCQLIIELPPDEKPNGHTKKSVSFREIVVSLLSHQVLLQNLYDILLEEFVKGPSPGEEKTIQVPEAKLAGFLRYISMQNLAVIFDLLLDSYRTAREFDTSPGLKCLLKKVSGIGGAANLYRQSAMSFNIYFHALVCAVLTNQETITAEQVKKVLFEDDERSTDSSQQCSSEDEDIFEETAQVSPPRGKEKRQWRARMPLLSVQPVSNADWVWLVKRLHKLCMELCNNYIQMHLDLENCMEEPPIFKGDPFFILPSFQSESSTPSTGGFSGKETPSEDDRSQSREHMGESLSLKAGGGDLLLPPSPKVEKKDPSRKKEWWENAGNKIYTMAADKTISKLMTEYKKRKQQHNLSAFPKEVKVEKKGEPLGPRGQDSPLLQRPQHLMDQGQMRHSFSAGPELLRQDKRPRSGSTGSSLSVSVRDAEAQIQAWTNMVLTVLNQIQILPDQTFTALQPAVFPCISQLTCHVTDIRVRQAVREWLGRVGRVYDIIV
notes: deletion construct
For the molecule B6, in [8], the binding result was “no binding”.

B7: scrPeptide (peptide)
peptide: DRQLQLSTLQRML
modifications: also: FITC tag, position not given here
notes: also called FITC-tagged ERAP1-scramble peptide
Turning to B7, in assay [9], the binding result was “no binding (tested: about 1.25 mg/mL)”.

B8: HA-tagged ERAP1-peptide (peptide)
peptide: RRRRRRRRRRRQMLSDLTLQLRQR
notes: ERAP1-peptide to which an HA tag was added; also called ERAP1-HA-peptide; HA tag-added peptide; not shown: HA tag
For orientation: Kd means the concentration at which binding is half-saturated. For the molecule B8, the binding result in [10] is recorded as “no binding (tested: 10 µM)”. In assay [11], the dissociation constant (Kd) worked out at 18.9 µM.

B9: ERAP1-peptide (11R-bound dominant negative peptide, ERAP1 165-177) (peptide)
peptide: RRRRRRRRRRRQMLSDLTLQLRQR
As for B9, the “IC50 of suppression effect for the cell proliferation in MCF-7 cells for 24 hours” value in assay [12] was found to be 2.18 µM.

B10: estrogen receptor α (ERα) (receptor)
chain: MTMTLHTKASGMALLHQIQGNELEPLNRPQLKIPLERPLGEVYLDSSKPAVYNYPEGAAYEFNAAAAANAQVYGQTGLPYGPGSEAAAFGSNGLGGFPPLNSVSPSPLMLLHPPPQLSPFLQPHGQQVPYYLENEPSGYTVREAGPPAFYRPNSDNRRQGGRERLASTNDKGSMAMESAKETRYCAVCNDYASGYHYGVWSCEGCKAFFKRSIQGHNDYMCPATNQCTIDKNRRKSCQACRLRKCYEVGMMKGGIRKDRRGGRMLKHKRQRDDGEGRGEVGSAGDMRAANLWPSPLMIKRSKKNSLALSLTADQMVSALLDAEPPILYSEYDPTRPFSEASMMGLLTNLADRELVHMINWAKRVPGFVDLTLHDQVHLLECAWLEILMIGLVWRSMEHPGKLLFAPNLLLDRNQGKCVEGMVEIFDMLLATSSRFRMMNLQGEEFVCLKSIILLNSGVYTFLSSTLKSLEEKDHIHRVLDKITDTLIHLMAKAGLTLQQQHQRLAQLLLILSHIRHMSNKGMEHLYSMKCKNVVPLYDLLLEMLDAHRLHAPTSRGGASVEETDQSHLATAGSTSSHSLQKYYITGEAEGFPATV
notes: Immunoprecipitated with anti-ERα antibody from cytoplasm or nuclear fractions
With B10, the binding result with NcoR, with Her2 and with EGFR was “binds” each time.

B11: FITC-tagged ERAP1-peptide (peptide)
peptide: RRRRRRRRRRRQMLSDLTLQLRQR
modifications: also: FITC tag, position not given here
For the molecule B11, the Kd is 480 µg/mL in assay [13] and 14.4 µM in assay [14].

B12: Scramble (HA-Peptide) (peptide)
single chain: DRQLQLSTLQRML
notes: it is detected in the Peptide blot, so it carries the tag; also called HA-tagged ERAP1-scramble peptide
With B12, the binding result in assay [15] is recorded as “no binding (tested: 100 µM)”.
